Reference: publication PMC11234873

Biological target: full-length human Hsp90α (human), P07900
Assay: BLI

Row | Binder | Kd [nM]
1 | GRGRGRGRGRGRGRGRGRGRGRGRGRGRGRGRGRGRGRGR (modifications not checked) [GR20 dipeptide repeats] | 8.97
2 | PRPRPRPRPRPRPRPRPRPRPRPRPRPRPRPRPRPRPRPR (modifications not checked) [PR20 dipeptide repeats] | 9.08
